Data on 15 molecules can be found in US20190256585A1 (IMMUNEMED, published 2019).

Residue numbers refer to the chain shown, from its start.

To fix the notation:
B1: humanized virus suppressing factor wild-type (hzVSF_wt) (antibody, V domains shown)
VH: EVQLVQSGAEVKKPGASVKVSCKASGYTFTGYNMNWVRQAPGKGLEWMGNIDPYYGSTTYAQKFQGRVTMTVDKSISTAYMELSRLRSDDTAVYYCARETGTRAMDYWGQGTLVTVSS
VL: DIQMTQSPSSLSASVGDRVTITCRASENIYSNLAWYQQKPGKAPKLLIYVATNLADGVPSRFSGSGSGTDFTLTISSLQPEDFATYYCQHFYGSPRTFGGGTKVEIK
notes: also called hzVSF wild-type
B2: hzVSF_var4 (antibody, V domains shown)
VH: B1 VH
VL: B1 VL with T52D, L54R, A55G, S94T
notes: Humanized IgG variant of hzVSF; constant regions not tied to this variant
B3: hzVSF_var13 (antibody, V domains shown)
VH: B1 VH with T58D
VL: B1 VL with T52D
notes: constant regions not tied to this variant; also called hzVSF v13
B4: hzVSF_var1 (antibody, V domains shown)
VH: B1 VH
VL: B1 VL with T52D
notes: Humanized IgG variant of hzVSF; constant regions not tied to this variant; also called hzVSF_1
B5: hzVSF_var3 (antibody, V domains shown)
VH: B1 VH
VL: B1 VL with T52D, L54R, A55G
notes: as for B2
B6: hzVSF_var9 (antibody, V domains shown)
VH: B1 VH with T58D, K74T, I76A
VL: B1 VL with T52D, L54R, A55G
notes: as for B2
B7: hzVSF_var8 (antibody, V domains shown)
VH: B1 VH with T58D, K74T, I76A, T102N
VL: B1 VL
notes: as for B2
B8: hzVSF_var12 (antibody, V domains shown)
VH: B1 VH with T58D, K74T, I76A, T102N
VL: B1 VL with T52D, L54R, A55G, S94T
notes: as for B2
B9: hzVSF_var5 (antibody, V domains shown)
VH: B1 VH with T58D
VL: B1 VL
notes: as for B2
B10: hzVSF_var6 (antibody, V domains shown)
VH: B1 VH with K74T, I76A
VL: B1 VL
notes: as for B2
B11: hzVSF_var7 (antibody, V domains shown)
VH: B1 VH with T58D, K74T, I76A
VL: B1 VL
notes: as for B2
B12: hzVSF_var2 (antibody, V domains shown)
VH: B1 VH
VL: B1 VL with T52D, A55G
notes: as for B2
B13: hzVSF_var10 (antibody, V domains shown)
VH: B1 VH with T58D, K74T, I76A, T102N
VL: B1 VL with T52D, L54R, A55G
notes: as for B2
B14: hzVSF_var11 (antibody, V domains shown)
VH: B1 VH with T58D, K74T, I76A
VL: B1 VL with T52D, L54R, A55G, S94T
notes: as for B2
B15: mouse virus suppressing factor (mVSF) (antibody, V domains shown)
VH: EIQLQQSGAELVKPGASVKISCKASGYSFTGYNMNWVKQSHGKSLEWIGNIDPYYGSTTYNQKFKGKATLTVDKSSSTAYMQLNSLTSEDSAVYYCARETGTRAMDYWGQGTSVTVSS
VL: DIQMTQSPASLSASVGETVTMTCRASENIYSNLAWYQQKQGKSPQLLVYVATNLADGVPSRFSGSGSGTQFSLKINSLQPEDFGSYYCQHFYGSPRTFGGGTKLEIKR
notes: also called mouse VSF

T1 sequence (P20152 2-466 limits assumed, form in doubt): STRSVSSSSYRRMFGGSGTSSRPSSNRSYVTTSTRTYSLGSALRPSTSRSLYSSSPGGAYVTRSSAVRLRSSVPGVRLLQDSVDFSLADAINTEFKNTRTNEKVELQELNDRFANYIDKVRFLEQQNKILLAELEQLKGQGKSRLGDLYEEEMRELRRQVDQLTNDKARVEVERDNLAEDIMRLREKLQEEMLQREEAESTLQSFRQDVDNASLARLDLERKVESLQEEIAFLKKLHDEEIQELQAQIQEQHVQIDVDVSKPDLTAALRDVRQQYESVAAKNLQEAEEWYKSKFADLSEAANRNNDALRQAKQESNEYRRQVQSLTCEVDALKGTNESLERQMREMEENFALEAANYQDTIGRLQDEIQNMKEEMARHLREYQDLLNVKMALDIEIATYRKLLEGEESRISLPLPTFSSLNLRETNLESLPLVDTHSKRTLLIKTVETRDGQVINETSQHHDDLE

The first test addresses isolated peptide of SEQ ID NO: 1 (vimentin amino acid positions 142 to 294). Nature of the test: method not described (refers to FIGS. 54 to 58).
For B1, the binding result is listed as “binds”.

Consider B2, for which the binding result was “binds”.

As for B3, the binding result is “binds”. Still for that read-out and setting: then B4, with “binds”; and B5, with “binds”; and B6, with “binds”. As to B7, the binding result is on record as “binds”. As to B8, the binding result is on record as “binds”. In the case of B9, the binding result is “binds”. For the molecule B10, the binding result was “binds”.

Regarding B11, the binding result is given as “binds”.

For the molecule B12, the binding result is recorded as “binds”. B13: the binding result was “binds”. Same read-out and setting: the result for B14 reads “binds”.

The next test addresses T1, VSF receptors on L929 cells infected with EMC-D virus (mouse, UniProt P20152 2-466).
T1 construct: also called receptors of hzVSF; VR
Kind of test: depletion of ligand from the culture supernatant of EMC-D-infected L929 cells (added minus recovered after 1 hour). The procedure: L929 cells were seeded at the amount of 6×10⁵ cells and infected with 2 MOI of EMC-D virus for 0, 2, 6, and 10 hours, respectively. […] The difference between the amount of each ligand added and the amount of the collected ligand after reaction is the amount of the ligand bound to the receptors, and based on the result, the affinity constant (Ka) and the dissociation constant (Kd) were calculated (Table 11).
By Kd is commonly meant the concentration at which binding is half-saturated. Regarding B1, the Ka turned out to be 8.2e+09 M⁻¹ and binding was put at a Kd of 0.12 nM. In the same order, the values of B3 are 1.7e+10 M⁻¹ and 0.059 nM. In the same order, the values of B15 are 2.1e+10 M⁻¹ and 0.047 nM.
